Data from paper doi:10.1101/131276.

Columns and labels:
Assay in all cases: non-reducing SDS-PAGE and Western blot
[1] = biological target: Gbb15 made by cleavage at the atypical S0 site (from gbb mS1 or gbb mNSmS1), HA-tagged (Drosophila)
[2] = biological target: Gbb38 from gbb mS1, HA-tagged (Drosophila)
[3] = biological target: proGbb, the uncleaved Gbb proprotein from gbb mNSmS1, HA-tagged (Drosophila)
[4] = biological target: proGbb, the uncleaved Gbb proprotein from gbb mNSmS1mS0, HA-tagged (Drosophila)

Chain of Gbb15 made by cleavage at the atypical S0 site (from gbb mS1 or gbb mNSmS1), HA-tagged (ligand) (P27091 37-455): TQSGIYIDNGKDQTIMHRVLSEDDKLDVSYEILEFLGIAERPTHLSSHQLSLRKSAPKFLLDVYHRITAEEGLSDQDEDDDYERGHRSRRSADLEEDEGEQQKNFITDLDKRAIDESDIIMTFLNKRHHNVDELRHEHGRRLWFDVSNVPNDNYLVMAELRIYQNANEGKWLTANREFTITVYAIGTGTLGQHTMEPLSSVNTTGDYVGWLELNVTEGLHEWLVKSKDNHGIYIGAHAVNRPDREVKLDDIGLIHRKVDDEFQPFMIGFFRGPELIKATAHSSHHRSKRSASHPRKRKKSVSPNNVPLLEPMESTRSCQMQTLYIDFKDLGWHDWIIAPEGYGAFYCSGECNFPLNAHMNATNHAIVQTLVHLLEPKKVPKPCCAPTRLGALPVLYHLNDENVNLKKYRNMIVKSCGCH

“Gbb15 made by cleavage at the atypical S0 site (from gbb mS1 or gbb mNSmS1), HA-tagged (ligand)” was tested, and the stoichiometry N [1] was 2.
Gbb38 from gbb mS1, HA-tagged (ligand) gave a stoichiometry N [2] of 2.
For “proGbb, the uncleaved Gbb proprotein from gbb mNSmS1, HA-tagged (natural protein)”, the stoichiometry N [3] was 2.
“proGbb, the uncleaved Gbb proprotein from gbb mNSmS1mS0, HA-tagged (natural protein)” showed a stoichiometry N [4] of 2.
